B1: mAb-64, purified antibody (antibody, V domains shown)
VH: EVQLVETGGGLIQPGGSLRLSCAASGFTVSSNYMSWVRQAPGKGLEWVSVIYSGGSTYYADSVKGRFTISRDNSKNTLYLQMNSLRAEDTAVYYCARDLHIYGMDVWGQGTTVTVSS
VL: DIQMTQSPSSVSASVGDRVTITCRASQGISSWLAWYQQKPGKAPKLLIYAASSLQSGVPSRFSGSGSGTDFTLTISSLQPEDFATYYCQQANSFPNFGGGTKVEIK
B2: mAb-50, purified antibody (antibody, V domains shown)
VH: QVQLQESGPGLVNPSETLSLTCGVSGYSISSGFYWGWIRQPPGKGLEWIGSIYHRGSTFYNPSLKSRVTISVDRSKNQFSLRLSSVTAADTAVYYCARGEVLTSGGYNARFDPWGQGTLVTVSS
VL: DIQMTQSPSTLSASVGDSVTITCRASQSISLWLAWYQQKPGKAPKVLIYETSSLESGVPSRFSGSGAGTEFTLTISSLQPDDFATYYCQQYISYPLTFGGGTKVEIK

Target: SARS-CoV-2 S1 (Avi-tag, biotinylated) (SARS-CoV-2, original strain, UniProt P0DTC2, biotinylated (Avi-tag))
Assay: BLI

Row | Binder | Kd [nM]
1 | B1 | 1.96
2 | B2 | 1.61
